Source: IntAct's records for PubMed 32296183

Columns and labels:
dazp2_human DAZAP2 = dazp2_human DAZAP2 (UniProt Q15038)
pihd2_human PIH1D2 = pihd2_human PIH1D2 (UniProt Q8WWB5)
hspb8_human HSPB8 = hspb8_human HSPB8 (UniProt Q9UJY1)
ptn21_human PTPN21 = ptn21_human PTPN21 (UniProt Q16825)
tri27_human TRIM27 = tri27_human TRIM27 (UniProt P14373)
leng8_human LENG8 = leng8_human LENG8 (UniProt Q96PV6)
magd1_human MAGED1 = magd1_human MAGED1 (UniProt Q9Y5V3)
vp37b_human VPS37B = vp37b_human VPS37B (UniProt Q9H9H4)
vp37b_human VPS37B, sequence (Q9H9H4 whole entry): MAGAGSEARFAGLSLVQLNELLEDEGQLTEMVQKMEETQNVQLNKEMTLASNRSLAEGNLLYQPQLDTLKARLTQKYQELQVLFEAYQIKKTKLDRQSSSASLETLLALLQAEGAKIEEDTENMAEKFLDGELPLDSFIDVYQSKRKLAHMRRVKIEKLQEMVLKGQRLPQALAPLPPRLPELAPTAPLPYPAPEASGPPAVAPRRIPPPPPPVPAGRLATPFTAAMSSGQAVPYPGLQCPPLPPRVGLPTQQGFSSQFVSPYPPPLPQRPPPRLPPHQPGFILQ

mdfi_human MDFI = mdfi_human MDFI (UniProt Q99750)
mdfi_human MDFI, sequence (Q99750 whole entry): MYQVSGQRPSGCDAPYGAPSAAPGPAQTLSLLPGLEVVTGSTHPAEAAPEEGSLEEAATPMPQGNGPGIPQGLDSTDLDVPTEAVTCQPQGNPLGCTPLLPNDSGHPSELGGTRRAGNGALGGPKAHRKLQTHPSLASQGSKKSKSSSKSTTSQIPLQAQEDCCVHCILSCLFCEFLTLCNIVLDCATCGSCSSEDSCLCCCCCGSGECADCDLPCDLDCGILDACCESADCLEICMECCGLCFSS

fx4l1_human FOXD4L1 = fx4l1_human FOXD4L1 (UniProt Q9NU39)
fx4l1_human FOXD4L1, sequence (Q9NU39 whole entry): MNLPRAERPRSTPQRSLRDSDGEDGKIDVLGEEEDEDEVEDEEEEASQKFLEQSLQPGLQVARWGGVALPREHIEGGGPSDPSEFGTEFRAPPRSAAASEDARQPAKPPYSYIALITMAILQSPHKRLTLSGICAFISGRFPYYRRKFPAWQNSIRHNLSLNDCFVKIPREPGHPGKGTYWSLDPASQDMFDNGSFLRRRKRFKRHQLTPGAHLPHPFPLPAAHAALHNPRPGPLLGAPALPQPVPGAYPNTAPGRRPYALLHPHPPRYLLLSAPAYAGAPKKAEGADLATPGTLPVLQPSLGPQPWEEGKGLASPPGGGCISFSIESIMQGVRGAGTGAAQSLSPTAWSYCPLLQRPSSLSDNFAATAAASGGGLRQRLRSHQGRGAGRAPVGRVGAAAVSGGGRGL

pa2gx_human PLA2G10 = pa2gx_human PLA2G10 (UniProt O15496)
prr34_human PRR34 = prr34_human PRR34 (UniProt Q9NV39)
prr34_human PRR34, sequence (Q9NV39 whole entry): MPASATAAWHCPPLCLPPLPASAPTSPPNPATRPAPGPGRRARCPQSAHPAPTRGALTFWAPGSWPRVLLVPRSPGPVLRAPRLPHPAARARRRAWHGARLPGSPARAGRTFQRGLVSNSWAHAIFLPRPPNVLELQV

ctds1_human CTDSP1 = ctds1_human CTDSP1 (UniProt Q9GZU7)
ctds1_human CTDSP1, sequence (Q9GZU7 whole entry): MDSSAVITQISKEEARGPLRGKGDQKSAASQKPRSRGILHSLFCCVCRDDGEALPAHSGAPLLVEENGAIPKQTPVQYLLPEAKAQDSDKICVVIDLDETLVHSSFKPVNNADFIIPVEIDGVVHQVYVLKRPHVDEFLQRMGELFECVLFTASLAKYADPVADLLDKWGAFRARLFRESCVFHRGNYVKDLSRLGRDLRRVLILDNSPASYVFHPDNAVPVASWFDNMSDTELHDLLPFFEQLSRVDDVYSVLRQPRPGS

egr4_human EGR4 = egr4_human EGR4 (UniProt Q05215)
hspb7_human HSPB7 = hspb7_human HSPB7 (UniProt Q9UBY9)
hspb7_human HSPB7, sequence (Q9UBY9 whole entry): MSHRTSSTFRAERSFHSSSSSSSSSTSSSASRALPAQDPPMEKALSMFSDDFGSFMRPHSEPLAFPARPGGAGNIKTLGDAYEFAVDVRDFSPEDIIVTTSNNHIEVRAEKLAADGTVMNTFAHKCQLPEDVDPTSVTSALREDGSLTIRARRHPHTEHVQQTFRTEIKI

arrd3_human ARRDC3 = arrd3_human ARRDC3 (UniProt Q96B67)
dtx3_human DTX3 = dtx3_human DTX3 (UniProt Q8N9I9)
noto_human NOTO = noto_human NOTO (UniProt A8MTQ0)
pdli7_human PDLIM7 = pdli7_human PDLIM7 (UniProt Q9NR12)
wbp2_human WBP2 = wbp2_human WBP2 (UniProt Q969T9)
trib3_human TRIB3 = trib3_human TRIB3 (UniProt Q96RU7)
trib3_human TRIB3, sequence (Q96RU7 whole entry): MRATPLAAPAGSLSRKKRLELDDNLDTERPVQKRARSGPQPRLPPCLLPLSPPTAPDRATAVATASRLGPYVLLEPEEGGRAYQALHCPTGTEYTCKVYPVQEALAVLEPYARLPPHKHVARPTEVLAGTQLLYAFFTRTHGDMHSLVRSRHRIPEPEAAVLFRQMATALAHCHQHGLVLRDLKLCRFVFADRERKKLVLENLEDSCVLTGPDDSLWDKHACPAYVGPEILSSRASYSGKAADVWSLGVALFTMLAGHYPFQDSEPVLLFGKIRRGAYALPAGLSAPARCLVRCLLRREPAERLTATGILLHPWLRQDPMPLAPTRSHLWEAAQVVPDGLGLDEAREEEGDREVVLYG

cytm1_human CYSTM1 = cytm1_human CYSTM1 (UniProt Q9H1C7)
cytm1_human CYSTM1, sequence (Q9H1C7 whole entry): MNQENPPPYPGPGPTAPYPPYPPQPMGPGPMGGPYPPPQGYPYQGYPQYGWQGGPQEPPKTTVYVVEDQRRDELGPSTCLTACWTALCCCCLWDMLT

tm174_human TMEM174 = tm174_human TMEM174 (UniProt Q8WUU8)
tm174_human TMEM174, sequence (Q8WUU8 whole entry): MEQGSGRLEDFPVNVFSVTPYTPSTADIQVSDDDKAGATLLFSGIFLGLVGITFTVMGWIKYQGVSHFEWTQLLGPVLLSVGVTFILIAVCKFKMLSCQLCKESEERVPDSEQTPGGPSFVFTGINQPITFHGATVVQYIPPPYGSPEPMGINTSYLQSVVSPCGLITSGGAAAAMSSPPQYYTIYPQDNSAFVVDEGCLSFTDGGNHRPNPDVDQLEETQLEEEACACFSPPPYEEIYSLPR

prdm6_human PRDM6 = prdm6_human PRDM6 (UniProt Q9NQX0)
rm38_human MRPL38 = rm38_human MRPL38 (UniProt Q96DV4)

leng8_human LENG8, sequence (Q96PV6 whole entry): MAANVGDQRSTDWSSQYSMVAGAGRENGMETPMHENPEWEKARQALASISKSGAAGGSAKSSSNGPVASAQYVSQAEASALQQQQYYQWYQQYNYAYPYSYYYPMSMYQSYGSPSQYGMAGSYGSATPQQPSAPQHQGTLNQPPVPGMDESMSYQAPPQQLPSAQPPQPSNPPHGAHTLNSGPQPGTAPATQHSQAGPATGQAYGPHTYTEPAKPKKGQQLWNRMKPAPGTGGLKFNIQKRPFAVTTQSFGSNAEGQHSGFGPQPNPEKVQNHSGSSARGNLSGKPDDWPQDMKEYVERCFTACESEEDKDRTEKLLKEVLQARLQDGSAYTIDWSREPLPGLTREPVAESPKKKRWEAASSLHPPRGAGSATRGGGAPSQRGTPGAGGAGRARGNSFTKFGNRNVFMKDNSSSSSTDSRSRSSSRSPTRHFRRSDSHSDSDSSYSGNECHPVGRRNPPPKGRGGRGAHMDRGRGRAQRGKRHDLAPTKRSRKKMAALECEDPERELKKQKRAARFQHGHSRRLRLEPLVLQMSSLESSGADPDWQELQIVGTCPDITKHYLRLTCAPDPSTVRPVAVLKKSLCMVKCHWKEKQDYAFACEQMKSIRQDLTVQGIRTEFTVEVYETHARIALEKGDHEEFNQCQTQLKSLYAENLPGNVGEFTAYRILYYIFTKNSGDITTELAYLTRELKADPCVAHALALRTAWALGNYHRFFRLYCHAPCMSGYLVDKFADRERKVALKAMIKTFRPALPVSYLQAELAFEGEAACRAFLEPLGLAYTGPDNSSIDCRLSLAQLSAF
magd1_human MAGED1, sequence (Q9Y5V3 whole entry): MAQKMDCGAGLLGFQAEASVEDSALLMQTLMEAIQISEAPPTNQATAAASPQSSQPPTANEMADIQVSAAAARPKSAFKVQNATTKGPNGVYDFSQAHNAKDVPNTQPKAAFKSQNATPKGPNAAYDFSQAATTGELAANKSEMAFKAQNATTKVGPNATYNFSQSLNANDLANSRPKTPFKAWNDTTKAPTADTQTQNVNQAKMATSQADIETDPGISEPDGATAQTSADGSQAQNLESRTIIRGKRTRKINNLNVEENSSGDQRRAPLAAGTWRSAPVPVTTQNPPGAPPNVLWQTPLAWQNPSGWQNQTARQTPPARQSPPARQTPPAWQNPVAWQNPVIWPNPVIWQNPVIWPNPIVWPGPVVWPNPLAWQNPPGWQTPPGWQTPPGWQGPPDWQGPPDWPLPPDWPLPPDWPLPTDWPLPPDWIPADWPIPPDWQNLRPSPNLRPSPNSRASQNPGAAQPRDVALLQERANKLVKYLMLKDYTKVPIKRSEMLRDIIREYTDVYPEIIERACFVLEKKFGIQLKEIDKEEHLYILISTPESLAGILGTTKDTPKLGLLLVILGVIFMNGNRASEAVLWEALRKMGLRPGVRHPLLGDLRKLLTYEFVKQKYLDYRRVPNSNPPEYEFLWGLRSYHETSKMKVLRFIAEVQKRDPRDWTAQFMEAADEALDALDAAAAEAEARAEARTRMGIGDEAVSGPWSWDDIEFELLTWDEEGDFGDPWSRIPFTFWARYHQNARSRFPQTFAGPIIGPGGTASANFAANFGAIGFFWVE
hspb8_human HSPB8, sequence (Q9UJY1 whole entry): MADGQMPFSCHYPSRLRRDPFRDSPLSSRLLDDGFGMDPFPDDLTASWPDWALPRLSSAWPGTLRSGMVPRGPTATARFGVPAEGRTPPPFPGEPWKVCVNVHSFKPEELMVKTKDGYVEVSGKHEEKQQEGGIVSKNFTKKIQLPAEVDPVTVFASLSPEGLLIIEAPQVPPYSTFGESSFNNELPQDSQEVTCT
dazp2_human DAZAP2, sequence (Q15038 whole entry): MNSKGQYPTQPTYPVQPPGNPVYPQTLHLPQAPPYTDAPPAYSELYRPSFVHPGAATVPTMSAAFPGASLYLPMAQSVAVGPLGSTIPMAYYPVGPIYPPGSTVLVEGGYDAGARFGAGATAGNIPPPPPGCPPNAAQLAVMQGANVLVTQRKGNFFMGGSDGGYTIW
SIAH1, Q8IUQ4-2, sequence (Q8IUQ4 other isoform, or with tags, fused parts or gaps): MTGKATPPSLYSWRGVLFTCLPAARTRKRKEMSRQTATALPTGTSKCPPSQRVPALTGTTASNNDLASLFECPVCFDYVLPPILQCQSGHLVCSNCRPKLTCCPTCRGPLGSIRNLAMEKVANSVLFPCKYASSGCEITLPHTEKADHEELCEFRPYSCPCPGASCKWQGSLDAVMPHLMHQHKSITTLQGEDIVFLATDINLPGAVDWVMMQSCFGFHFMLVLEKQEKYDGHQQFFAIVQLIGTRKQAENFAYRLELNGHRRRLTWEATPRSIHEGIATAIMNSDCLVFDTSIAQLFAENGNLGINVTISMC
NR1H3, Q13133-3, sequence (Q13133 46-447): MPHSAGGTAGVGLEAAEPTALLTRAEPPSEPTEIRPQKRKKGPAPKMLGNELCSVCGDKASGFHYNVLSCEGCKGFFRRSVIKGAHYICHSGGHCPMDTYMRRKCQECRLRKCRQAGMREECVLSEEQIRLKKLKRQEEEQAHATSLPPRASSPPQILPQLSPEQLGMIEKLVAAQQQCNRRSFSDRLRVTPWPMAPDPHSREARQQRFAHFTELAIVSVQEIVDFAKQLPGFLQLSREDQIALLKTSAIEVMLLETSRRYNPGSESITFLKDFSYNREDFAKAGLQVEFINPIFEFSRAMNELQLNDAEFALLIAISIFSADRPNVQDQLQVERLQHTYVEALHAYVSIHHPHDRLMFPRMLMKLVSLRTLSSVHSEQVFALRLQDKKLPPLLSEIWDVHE

“BAG family molecular chaperone regulator 3 (Homo sapiens), O95817 R218W” was tested, and the “effect of a mutation on the interaction” value (dazp2_human DAZAP2) was “with no effect”, the “effect of a mutation on the interaction” value (pihd2_human PIH1D2) was “with no effect” and the “effect of a mutation on the interaction” value (hspb8_human HSPB8) was “with no effect”. For the same substance, the “effect of a mutation on the interaction” value (ptn21_human PTPN21) was “with no effect”, the “effect of a mutation on the interaction” value (tri27_human TRIM27) was “with no effect” and the “effect of a mutation on the interaction” value (leng8_human LENG8) was “with no effect”. The “effect of a mutation on the interaction” value (magd1_human MAGED1) was “with no effect”, the “effect of a mutation on the interaction” value (vp37b_human VPS37B) was “with no effect” and the “effect of a mutation on the interaction” value (mdfi_human MDFI) was “with no effect”. For the same substance, the “effect of a mutation on the interaction” value (fx4l1_human FOXD4L1) was “with no effect”, the “effect of a mutation on the interaction” value (pa2gx_human PLA2G10) was “with no effect” and the “effect of a mutation on the interaction” value (prr34_human PRR34) was “with no effect”. The “effect of a mutation on the interaction” value (ctds1_human CTDSP1) was “with no effect”, the “effect of a mutation on the interaction” value (egr4_human EGR4) was “with no effect” and the “effect of a mutation on the interaction” value (SIAH1, Q8IUQ4-2) was “with no effect”. For the same substance, the “effect of a mutation on the interaction” value (EYA2, O00167-2) was “with no effect”, the “effect of a mutation on the interaction” value (hspb7_human HSPB7) was “with no effect” and the “effect of a mutation on the interaction” value (arrd3_human ARRDC3) was “with no effect”. The “effect of a mutation on the interaction” value (dtx3_human DTX3) was “with no effect”, the “effect of a mutation on the interaction” value (noto_human NOTO) was “with no effect” and the “effect of a mutation on the interaction” value (NR1H3, Q13133-3) was “with no effect”. For the same substance, the “effect of a mutation on the interaction” value (pdli7_human PDLIM7) was “with no effect”, the “effect of a mutation on the interaction” value (wbp2_human WBP2) was “with no effect” and the “effect of a mutation on the interaction” value (trib3_human TRIB3) was “with no effect”. For the same substance, the “effect of a mutation on the interaction” value (cytm1_human CYSTM1) was “with no effect”, the “effect of a mutation on the interaction” value (GLIS3, Q8NEA6-2) was “with no effect” and the “effect of a mutation on the interaction” value (tm174_human TMEM174) was “with no effect”.
“BAG family molecular chaperone regulator 3 (Homo sapiens), O95817 L462P” was tested, and the “effect of a mutation on the interaction” value (dazp2_human DAZAP2) was “with no effect”, the “effect of a mutation on the interaction” value (pihd2_human PIH1D2) was “with no effect” and the “effect of a mutation on the interaction” value (RUNX1, Q01196-8) was “with no effect”. For the same substance, the “effect of a mutation on the interaction” value (hspb8_human HSPB8) was “with no effect”, the “effect of a mutation on the interaction” value (ptn21_human PTPN21) was “with no effect” and the “effect of a mutation on the interaction” value (prdm6_human PRDM6) was “with no effect”. For the same substance, the “effect of a mutation on the interaction” value (tri27_human TRIM27) was “with no effect”, the “effect of a mutation on the interaction” value (leng8_human LENG8) was “disrupting interaction strength” and the “effect of a mutation on the interaction” value (magd1_human MAGED1) was “with no effect”. The “effect of a mutation on the interaction” value (vp37b_human VPS37B) was “with no effect”, the “effect of a mutation on the interaction” value (mdfi_human MDFI) was “with no effect” and the “effect of a mutation on the interaction” value (fx4l1_human FOXD4L1) was “with no effect”. The “effect of a mutation on the interaction” value (pa2gx_human PLA2G10) was “with no effect”, the “effect of a mutation on the interaction” value (prr34_human PRR34) was “with no effect” and the “effect of a mutation on the interaction” value (ctds1_human CTDSP1) was “disrupting interaction strength”. For the same substance, the “effect of a mutation on the interaction” value (egr4_human EGR4) was “with no effect”, the “effect of a mutation on the interaction” value (SIAH1, Q8IUQ4-2) was “disrupting interaction strength” and the “effect of a mutation on the interaction” value (EYA2, O00167-2) was “with no effect”. For the same substance, the “effect of a mutation on the interaction” value (hspb7_human HSPB7) was “with no effect”, the “effect of a mutation on the interaction” value (arrd3_human ARRDC3) was “with no effect” and the “effect of a mutation on the interaction” value (dtx3_human DTX3) was “with no effect”. For the same substance, the “effect of a mutation on the interaction” value (noto_human NOTO) was “with no effect”, the “effect of a mutation on the interaction” value (NR1H3, Q13133-3) was “with no effect” and the “effect of a mutation on the interaction” value (rm38_human MRPL38) was “disrupting interaction strength”. The “effect of a mutation on the interaction” value (pdli7_human PDLIM7) was “with no effect”, the “effect of a mutation on the interaction” value (wbp2_human WBP2) was “with no effect” and the “effect of a mutation on the interaction” value (trib3_human TRIB3) was “disrupting interaction strength”. The “effect of a mutation on the interaction” value (cytm1_human CYSTM1) was “with no effect”, the “effect of a mutation on the interaction” value (GLIS3, Q8NEA6-2) was “with no effect” and the “effect of a mutation on the interaction” value (tm174_human TMEM174) was “disrupting interaction strength”.
With “BAG family molecular chaperone regulator 3 (Homo sapiens), O95817 R258W” the “effect of a mutation on the interaction” value (dazp2_human DAZAP2) was “with no effect”, the “effect of a mutation on the interaction” value (pihd2_human PIH1D2) was “with no effect” and the “effect of a mutation on the interaction” value (RUNX1, Q01196-8) was “with no effect”. The “effect of a mutation on the interaction” value (hspb8_human HSPB8) was “with no effect”, the “effect of a mutation on the interaction” value (ptn21_human PTPN21) was “with no effect” and the “effect of a mutation on the interaction” value (prdm6_human PRDM6) was “with no effect”. The “effect of a mutation on the interaction” value (tri27_human TRIM27) was “with no effect”, the “effect of a mutation on the interaction” value (leng8_human LENG8) was “with no effect” and the “effect of a mutation on the interaction” value (magd1_human MAGED1) was “with no effect”. For the same substance, the “effect of a mutation on the interaction” value (vp37b_human VPS37B) was “with no effect”, the “effect of a mutation on the interaction” value (mdfi_human MDFI) was “with no effect” and the “effect of a mutation on the interaction” value (fx4l1_human FOXD4L1) was “with no effect”. The “effect of a mutation on the interaction” value (pa2gx_human PLA2G10) was “with no effect”, the “effect of a mutation on the interaction” value (prr34_human PRR34) was “with no effect” and the “effect of a mutation on the interaction” value (ctds1_human CTDSP1) was “with no effect”. For the same substance, the “effect of a mutation on the interaction” value (egr4_human EGR4) was “with no effect”, the “effect of a mutation on the interaction” value (SIAH1, Q8IUQ4-2) was “with no effect” and the “effect of a mutation on the interaction” value (EYA2, O00167-2) was “with no effect”. The “effect of a mutation on the interaction” value (hspb7_human HSPB7) was “with no effect”, the “effect of a mutation on the interaction” value (arrd3_human ARRDC3) was “with no effect” and the “effect of a mutation on the interaction” value (dtx3_human DTX3) was “with no effect”. For the same substance, the “effect of a mutation on the interaction” value (noto_human NOTO) was “with no effect”, the “effect of a mutation on the interaction” value (NR1H3, Q13133-3) was “with no effect” and the “effect of a mutation on the interaction” value (rm38_human MRPL38) was “disrupting interaction strength”. For the same substance, the “effect of a mutation on the interaction” value (pdli7_human PDLIM7) was “with no effect”, the “effect of a mutation on the interaction” value (wbp2_human WBP2) was “with no effect” and the “effect of a mutation on the interaction” value (trib3_human TRIB3) was “with no effect”. The “effect of a mutation on the interaction” value (GLIS3, Q8NEA6-2) was “with no effect” and the “effect of a mutation on the interaction” value (tm174_human TMEM174) was “with no effect”.
